We go through six molecules from patent US20200347144A1 (SHANGHAI HYAMAB BIOTECH, published 2020).

The chains are these.
B1: 258F5A8 (antibody, V domains shown)
VH: QVQLVESGGGVVQPGRSLRLSCAASGFTFSSYGMHWVRQAPGKGLEWVAVIWYDGSNKYYADSVKGRFNISRDNSKNTLYLQMNSLRAEDTAVYYCARGPYLYSSGWYDYYYYGMDVWGQGTTVTVSS
VL: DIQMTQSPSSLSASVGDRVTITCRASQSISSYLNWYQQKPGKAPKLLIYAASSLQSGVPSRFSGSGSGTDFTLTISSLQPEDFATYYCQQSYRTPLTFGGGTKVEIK
B2: 259G10E11 (antibody, V domains shown)
VH: B1 VH with N69T
VL: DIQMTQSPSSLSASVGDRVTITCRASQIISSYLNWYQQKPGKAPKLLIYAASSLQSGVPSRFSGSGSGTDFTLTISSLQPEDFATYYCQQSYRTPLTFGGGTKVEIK
B3: 170D7F2 (antibody, V domains shown)
VH: QVQLVQSGAEVKKPGASVKVSCKASGYTFTSYDINWVRQATGQGLEWMGWMNPNSGNTGYAQKFQGRVTMTRNTSISTAYMELSSLRSEDTAVYYCARETGPFDYWGQGTLVTVSS
VL: DIQMTQSPSSLSASVGDRVTITCRASQRINNYLNWYQQKPGKAPKLLIYGASSLQSGVPSRFSGSGSGTDFTLTISSLQPEDFATYYCQQSYSTPFTFGPGTKVDIK
B4: 182A5B3 (antibody, V domains shown)
VH: B3 VH with A61V
VL: not shown
B5: 118F3A2 (antibody, V domains shown)
VH: QVQLQQWGAGLLKPSETLSLTCGVYGGSFSTNYWSWIRQSPGKGLEWIGEINHSGNTEYNPSLKSRLTISIDTSKNQFSLKLTSVTAADTAVYYCARMGYHSPSFDFWGQGVLVTVSS
VL: KIVMTQSPATLSVSPGERATLPCRVSQGIGSNLAWYQQKPGQAPRLLIYGASTRATGVPARFSGSGSGSEFTLTISSLQSEDLALYYCQQYNNWPLTFGGGTKVEIK
B6: 172E3E3 (antibody, V domains shown)
VH: QVQLQESGPGLVKPSGTLSLTCAVSGGSISSSNWWSWVRQPPGKGLEWIGEIYHSGSTNYNPSLKSRVTISVDKSKNQLSLNLSSVTAADTAVYYCARQGGVAGTLYWYFDLWGRGTLVTVSS
VL: DIVMTQSPLSLPVTPGEPASISCRSSQGLLHSNGYNYLDWYLQKPGQSPQLLIYLGSNRASGVPDRFIGSGSGTDFTLKIRRVEAEDVGVYYCMQVLQTPWTFGQGTKVEIK

Where a chain is given by its changes, count along the chain named.

T2 sequence (Q07011 24-255): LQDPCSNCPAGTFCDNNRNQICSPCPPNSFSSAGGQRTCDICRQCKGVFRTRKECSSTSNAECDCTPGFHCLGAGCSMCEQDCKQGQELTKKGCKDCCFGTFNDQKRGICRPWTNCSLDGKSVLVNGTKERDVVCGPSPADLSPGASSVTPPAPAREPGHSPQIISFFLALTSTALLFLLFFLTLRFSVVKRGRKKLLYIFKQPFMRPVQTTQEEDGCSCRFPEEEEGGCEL

The target of the first assay is T1, hFc-tagged human 4-1BB extracellular domain protein (4-1BB-hFc) (human, UniProt Q07011 24-186, limits assumed).
T1 construct: also called immunogen A; 4-1BB^ECD-hFc; not shown: human IgG Fc fragment (hFc) of the pCpC vector
Nature of the assay: ELISA, coated human 4-1BB-hFc; Ab 0.08 ug/ml. As to the method: (§1) The purified immunogen A (4-1BB-hFc), monkey 4-1BB-his, and mouse 4-1BB-his obtained in Example 1 [for the preparation method, see step 1 of Example 1, preparation of immunogen A], of which the extracellular domain of monkey-derived 4-1BB protein (purchased from ACRO biosystems), the extracellular domain of mouse 4-1BB protein (purchased from sino biological) or other immune detection point proteins respectively were diluted with PBS to a final concentration of 1.0 μg/mL, then added with […] per well to 96-well ELISA plate. It was sealed with plastic film and incubated at 4° C. overnight. The next day, the plate was washed twice with the plate-washing solution [PBS containing 0.01% (v/v) Tween20] and blocking solution [PBS containing 0.01% (v/v) Tween 20 and 1% (v/v) BSA] was added and blocked at room temperature for 2 hours. The blocking solution was discarded and 100 μl of the purified 4-1BB antibody obtained in Example 2 was added per well. After incubated at 37° C. for 2 hours, the plate was washed 3 times with a plate-washing solution [PBS containing 0.01% (v/v) Tween20]. A secondary antibody (purchased from Sigma) labeled with HRP (horseradish peroxidase) was added, and after incubated at 37° C. for 2 hours, the plate was washed 3 times with a plate-washing solution [PBS containing 0.01% (v/v) Tween20]. 100 μl of TMB substrate was added per well. After incubated for 30 minutes at room temperature, 100 μl of stop buffer (1.0N HCl) was added per well. The A450 nm values were read using an ELISA plate reader (SpectraMax 384plus, Molecular Device).
On the technique in general: An ELISA detects its analyte on a solid surface through an enzyme-linked reagent.
Molecule B1 had an OD450 nm of 2.47 OD450 nm.

With B2, the OD450 nm stood at 2.64 OD450 nm.

Regarding B3, the OD450 nm was 3.24 OD450 nm.

Consider B4, for which the OD450 nm was determined as 3.29 OD450 nm.

Regarding B5, the OD450 nm turned out to be 2.26 OD450 nm.

As for B6, the OD450 nm amounted to 3.18 OD450 nm.

Another assay has as its target T1, hFc-tagged human 4-1BB extracellular …. Nature of the assay: ELISA, coated human 4-1BB-hFc; Ab 0.0001 ug/ml. As to the method: as §1
Take B1: the OD450 nm was 0.06 OD450 nm.

With B2, the OD450 nm was determined as 0.07 OD450 nm.

Consider B3, for which the OD450 nm came out at 0.13 OD450 nm.

Take B4: the OD450 nm turned out to be 0.13 OD450 nm.

Consider B5, for which the OD450 nm came to 0.43 OD450 nm.

B6 yielded an OD450 nm of 0.14 OD450 nm.

A further assay addresses T2, human 4-1BB, full length, on transfected cells (human, UniProt Q07011 24-255).
T2 construct: whole, on cells; also called CHOK1-h4-1BB
Put plainly: FACS, CHOK1-h4-1BB cells; Ab 0.016 ug/ml. The source says:
(§2) The pIRES plasmid carrying the full-length gene of monkey-derived […] (the preparation method is the same as the preparation method of the pCpC vector carrying the human-derived IgG Fc fragment (hFc) in “Preparation of immunogen A” of the step (1) in Example 1, in which the database accession number of the amino acid sequence of the extracellular region of monkey 4-1BB protein (Phe19-Thr239) is G7PSE7) was transfected into CHOK1 cell line to obtain CHOK1 stable transfected cell line containing monkey 4-1BB (herein referred to as CHOK1-c4-1BB stable cell line). The CHOK1-h4-1BB stable cell line and the CHOK1-c4-1BB stable cell line were expanded and cultivated to 90% confluence in T-75 cell culture flasks. The medium was exhausted, and washed twice with HBSS buffer (Hanks Balanced Salt Solution, purchased from Invitrogen), and then the cells were treated and collected with enzyme-free cell dissociation solution (Versene solution, purchased from Life Technology). The cells were washed twice with HBSS buffer, and after cell counting, the cells were diluted with HBSS buffer to 2×10⁶ cells per ml, and 1% goat serum blocking solution was added, the percentage being the mass percentage. It was incubated on ice for 30 minutes, and then washed twice with HBSS buffer by centrifugation. The collected cells were suspended in FACS buffer (HBSS containing 1% BSA, the percentage was the mass percentage) to 2×10⁶ cells/mL, and 100 μl per well was added to a 96-well FACS reaction plate. The purified 4-1BB antibody test sample obtained in Example 2 was added, 100 microliters per well and incubated on ice for 2 hours. […] It was washed three times with FACS buffer by centrifugation, and 100 μl of fixative [4% (v/v) paraformaldehyde] per well was added to suspend cells, and washed twice with FACS buffer after 10 minutes by centrifugation. The cells were suspended with 100 microliters of FACS buffer, and the results were detected and analyzed with FACS (FACS Calibur, purchased from BD).
(In general: A flow cytometer gives signals particle by particle.)
B1 returned an average fluorescence intensity of 68 MFI.

The molecule B2 had an average fluorescence intensity of 67.2 MFI.

With B3, the average fluorescence intensity came to 48.8 MFI.

Consider B4, for which the average fluorescence intensity was determined as 52.7 MFI.

Molecule B5 yielded an average fluorescence intensity of 125 MFI.

In turn, B6 had an average fluorescence intensity of 46.9 MFI.

Another assay deals with T2, human 4-1BB, full length, on …. Nature of the assay: FACS, CHOK1-h4-1BB cells; Ab 2 ug/ml.
Excerpt: as §2
In the case of B1, the average fluorescence intensity came out at 766 MFI.

In turn, B2 gave an average fluorescence intensity of 803 MFI.

B3 displayed an average fluorescence intensity of 736 MFI.

Regarding B4, the average fluorescence intensity was determined as 760 MFI.

B5 had an average fluorescence intensity of 540 MFI.

In the case of B6, the average fluorescence intensity was found to be 486 MFI.

The target in a further assay is T3, monkey 4-1BB on CHOK1 cells (monkey).
T3 construct: whole, on cells; also called CHOK1-c4-1BB
Put plainly: FACS, CHOK1-c4-1BB cells; Ab 0.00064 ug/ml.
Excerpt: as §2
For the molecule B1, the average fluorescence intensity was found to be 3 MFI.

Take B2: the average fluorescence intensity was found to be 2.9 MFI.

With B3, the average fluorescence intensity was determined as 4 MFI.

Molecule B4 registered an average fluorescence intensity of 4.4 MFI.

In turn, B5 registered an average fluorescence intensity of 4.9 MFI.

Molecule B6 gave an average fluorescence intensity of 71.7 MFI.

For another assay, the target named is T3, monkey 4-1BB on CHOK1 cells. Put plainly: FACS, CHOK1-c4-1BB cells; Ab 2 ug/ml.
Excerpt: as §2
In turn, B1 displayed an average fluorescence intensity of 112 MFI.

Regarding B2, the average fluorescence intensity was 107 MFI.

Take B3: the average fluorescence intensity came to 621 MFI.

For B4, the average fluorescence intensity is 712 MFI.

B5: the average fluorescence intensity worked out at 688 MFI.

B6: the average fluorescence intensity was 305 MFI.

For another assay the target is unchanged. Nature of the assay: FACS, CHOK1-c4-1BB cells; Ab 0.00013 ug/ml.
Excerpt: as §2
Turning to B1, the average fluorescence intensity came out at 2.5 MFI.

Regarding B2, the average fluorescence intensity came out at 2.5 MFI.

B3 returned an average fluorescence intensity of 2.6 MFI.

In the case of B4, the average fluorescence intensity came to 2.7 MFI.

For the molecule B5, the average fluorescence intensity is 2.9 MFI.

Consider B6, for which the average fluorescence intensity is 17.6 MFI.

For a further assay the target is unchanged. Put plainly: FACS, CHOK1-c4-1BB cells; Ab 10 ug/ml.
Excerpt: as §2
Molecule B1 had an average fluorescence intensity of 131 MFI.

Molecule B2 gave an average fluorescence intensity of 126 MFI.

B3 yielded an average fluorescence intensity of 700 MFI.

B4 returned an average fluorescence intensity of 746 MFI.

Consider B5, for which the average fluorescence intensity was 735 MFI.

The molecule B6 showed an average fluorescence intensity of 342 MFI.

A further assay addresses T1, hFc-tagged human 4-1BB extracellular …. Nature of the assay: ELISA, coated human 4-1BB-hFc; Ab 2 ug/ml. As to the method: as §1
As for B1, the OD450 nm stood at 2.67 OD450 nm.

The molecule B2 gave an OD450 nm of 2.8 OD450 nm.

The molecule B3 registered an OD450 nm of 3.49 OD450 nm.

In the case of B4, the OD450 nm is 3.54 OD450 nm.

The molecule B5 came in with an OD450 nm of 2.72 OD450 nm.

In the case of B6, the OD450 nm came to 3.44 OD450 nm.

For another assay, the target named is T2, human 4-1BB, full length, on …. Nature of the assay: FACS, CHOK1-h4-1BB cells; Ab 0.00013 ug/ml.
Excerpt: as §2
In turn, B1 showed an average fluorescence intensity of 4.1 MFI.

B2 had an average fluorescence intensity of 3.9 MFI.

Molecule B3 returned an average fluorescence intensity of 2.6 MFI.

In turn, B4 yielded an average fluorescence intensity of 2.6 MFI.

Molecule B5 showed an average fluorescence intensity of 4.4 MFI.

As for B6, the average fluorescence intensity was 13.8 MFI.

A further assay has the same target. Put plainly: FACS, CHOK1-h4-1BB cells; Ab 0.0032 ug/ml.
Excerpt: as §2
Molecule B1 gave an average fluorescence intensity of 21.1 MFI.

B2 displayed an average fluorescence intensity of 19.4 MFI.

As to B3, the average fluorescence intensity turned out to be 14 MFI.

B4 registered an average fluorescence intensity of 14.8 MFI.

As to B5, the average fluorescence intensity turned out to be 34.4 MFI.

Take B6: the average fluorescence intensity came to 13 MFI.

A further assay has as its target T1, hFc-tagged human 4-1BB extracellular …. Put plainly: ELISA, coated human 4-1BB-hFc; Ab 0.0032 ug/ml. As to the method:
as §1
In turn, B1 had an OD450 nm of 0.26 OD450 nm.

Turning to B2, the OD450 nm is 0.33 OD450 nm.

As to B3, the OD450 nm was determined as 0.48 OD450 nm.

Turning to B4, the OD450 nm is 0.38 OD450 nm.

In the case of B5, the OD450 nm was determined as 0.54 OD450 nm.

In turn, B6 registered an OD450 nm of 0.51 OD450 nm.

The target of the next assay is T2, human 4-1BB, full length, on …. Put plainly: FACS, CHOK1-h4-1BB cells; Ab 0.4 ug/ml.
Excerpt: as §2
B1 returned an average fluorescence intensity of 591 MFI.

In turn, B2 gave an average fluorescence intensity of 625 MFI.

Molecule B3 showed an average fluorescence intensity of 540 MFI.

B4 gave an average fluorescence intensity of 530 MFI.

In the case of B5, the average fluorescence intensity is 508 MFI.

The molecule B6 gave an average fluorescence intensity of 413 MFI.

The next assay has the same target. Put plainly: FACS on CHOK1-h4-1BB cells, Alexa 488 secondary antibody, average fluorescence intensity.
Excerpt: as §2
One may read the EC50 (read off the curve) as the midpoint of the concentration-response curve. As for B1, the “EC50 (read off the curve)” value was around 0.2 µg/mL.

In the case of B2, the “EC50 (read off the curve)” value is around 0.2 µg/mL.

Regarding B3, the “EC50 (read off the curve)” value is around 0.2 µg/mL.

For B4, the “EC50 (read off the curve)” value was around 0.2 µg/mL.

Turning to B5, the “EC50 (read off the curve)” value was around 0.05 µg/mL.

For the molecule B6, the “EC50 (read off the curve)” value was around 0.1 µg/mL.
